We go through five molecules from US20200347127A1 (CRESCENDO BIOLOGICS, published 2020).

Where two headings read alike, the source gives them in different places.

Broadly, the Kd is the constant that tells how readily two partners part at equilibrium. For orientation: koff means the first-order rate constant of dissociation. The term kon denotes the rate constant with which the complex forms. Broadly, the IC50 is the midpoint of a concentration-inhibition curve. In general, EC50 refers to the midpoint of the concentration-response curve. In general, EC50 (read off the curve) refers to the midpoint of the concentration-response curve.

The target of test [1] is T1, recombinant human IL-17A (human, UniProt Q16552 24-155).
T1 construct: Bought recombinant protein (Peprotech AF-200-17); also called Peprotech AF-200-17
Description: SPR (BIAcore T200), IL-17A coupled to CM5 chip, single-cycle kinetics. (Surface plasmon resonance follows binding to a sensor surface in real time, without labels.)
Description: (§1) VH binding kinetics were then determined from the (blank subtracted) sensorgram traces using 1:1 binding models and BIAevaluation software.

Test [2] deals with T1, recombinant human IL-17A. Briefly: BIAcore single-cycle kinetics, ligand Il-17, 1:1 binding fit, 25 C (n=1 per legend).
The target of test [3] is T1, recombinant human IL-17A. Description: competition ELISA, IL-17A binding to coated IL-17RA-Fc. For orientation: ELISA stands for enzyme-linked immunosorbent assay.
Description: (§2) Following washing of excess coating antigen, as described above, the wells of the plate were incubated with 3% skimmed milk powder/PBS to block non-specific protein interactions. […] The mixture was then transferred to the assay plate and incubated for 1 hour at room temperature.
(§3) Where appropriate, curve fitting in PRISM was used to determine the EC₅₀ of inhibiting VH.
Test [4] has as its target T1, recombinant human IL-17A. Briefly: cell-based or functional assay.
Test [5] deals with T1, recombinant human IL-17A. Briefly: BIAcore single-cycle kinetics on IL-17A (n=2 per legend).
Test [6] has as its target T1, recombinant human IL-17A. Briefly: BIAcore single-cycle kinetics, ligand Il-17, 1:1 binding fit, 25 C (n=1 per legend). This is another data set of the same source.
Test [7] addresses T1, recombinant human IL-17A. Description: cell-based or functional assay. This is another data set of the same source.
Test [8] deals with T1, recombinant human IL-17A. Briefly: BIAcore single-cycle kinetics on IL-17A (n=2 per legend). This is another data set of the same source.
Test [9] concerns the target T1, recombinant human IL-17A. Description: cell-based or functional assay. This is another data set of the same source.
For test [10], the target named is T1, recombinant human IL-17A. Description: cell-based or functional assay. This is another data set of the same source.
Test [11] deals with T1, recombinant human IL-17A. Description: BIAcore single-cycle kinetics on IL-17A (n=2 per legend). The source holds these as a separate data set.
In test [12] the target is T1, recombinant human IL-17A. Briefly: BIAcore single-cycle kinetics, ligand Il-17, 1:1 binding fit, 25 C (n=1 per legend). This is another data set of the same source.
Test [13] has as its target T1, recombinant human IL-17A. Description: SPR (BIAcore T200), IL-17A coupled to CM5 chip, single-cycle kinetics. This is another data set of the same source.
Description: as §1
The target in test [14] is T1, recombinant human IL-17A. Briefly: competition ELISA, IL-17A binding to coated IL-17RA-Fc; FIG. 9A.
Description: as §2, §3
The target in test [15] is T1, recombinant human IL-17A. Description: SPR (BIAcore).
The target in another test is T2, IL17E.
T2 construct: also called IL-25
T2 chain: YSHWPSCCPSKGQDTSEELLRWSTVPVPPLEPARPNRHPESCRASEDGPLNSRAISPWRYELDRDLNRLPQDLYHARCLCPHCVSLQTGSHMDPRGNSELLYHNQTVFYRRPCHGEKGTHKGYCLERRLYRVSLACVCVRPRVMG
Briefly: specificity ELISA on coated antigen, VH concentration not given.

In another test the target is T3, IL-17C (UniProt Q9P0M4 19-197, limits assumed).
T3 sequence (looked up): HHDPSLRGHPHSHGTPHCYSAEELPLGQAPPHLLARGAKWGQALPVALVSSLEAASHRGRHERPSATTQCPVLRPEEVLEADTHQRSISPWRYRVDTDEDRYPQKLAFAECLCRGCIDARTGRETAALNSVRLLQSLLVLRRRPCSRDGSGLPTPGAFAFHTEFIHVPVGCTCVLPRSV
Described as above.

A further test has as its target T4, IL-17F (UniProt Q96PD4 31-163, limits assumed).
T4 sequence (looked up): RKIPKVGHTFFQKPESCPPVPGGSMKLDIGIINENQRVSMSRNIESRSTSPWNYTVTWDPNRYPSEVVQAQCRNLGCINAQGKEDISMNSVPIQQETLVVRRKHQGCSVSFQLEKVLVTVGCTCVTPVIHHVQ
Described as above.

Test [16] addresses T1, recombinant human IL-17A. Description: VH screening as in examples 7 and 8.
The target in test [17] is T1, recombinant human IL-17A. Description: BIAcore single-cycle kinetics on IL-17A (n=2 per legend). This is another data set of the same source.
Test [18] concerns the target T1, recombinant human IL-17A. Briefly: BIAcore single-cycle kinetics, ligand Il-17, 1:1 binding fit, 25 C (n=1 per legend). The source holds these as a separate data set.

T1 sequence (Q16552 24-155): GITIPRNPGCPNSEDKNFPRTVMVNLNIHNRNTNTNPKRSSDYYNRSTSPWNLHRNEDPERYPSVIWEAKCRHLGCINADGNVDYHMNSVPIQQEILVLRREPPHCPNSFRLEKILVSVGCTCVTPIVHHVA

B1: VH 3.2.1 (clone 3.2 expressed from phagemid vector: with linker residues and His tag) (VHH)
VHH: QVQLVQSGAEVKKPGASVKVSCKASGYNADAYYINWVRQAPGQGLEWMGSIKPNTGATKYAQKFQGRVTITRDTSISTAYMELSRLRSDDTAVYYCASLDRDTWYPHSYAGWFDAWGQGTLVTVSS
notes: Human single VH domain
With B1, the Kd was 0.23 nM with recombinant human IL-17A [1], 0.15 nM with recombinant human IL-17A [2] and 0.212 nM with recombinant human IL-17A [5]. The koff with recombinant human IL-17A [1] was 0.000252 s⁻¹; with recombinant human IL-17A [2], 0.000349 s⁻¹. For the same molecule, the results for the kon with recombinant human IL-17A [1] and with recombinant human IL-17A [2] were 1.1e+06 M⁻¹ s⁻¹ and 2.28e+06 M⁻¹ s⁻¹, respectively. In addition, the half-inhibitory concentration (IC50) in the test with recombinant human IL-17A [3] amounted to 2.5 nM. Moreover, in the test with recombinant human IL-17A [4], the “Cell assay IC50 (nM), IL-17A-induced IL6 release from HT1080” value (from here on “Cell assay IC50 (nM)”) came to 2.5 nM.

B2: 3.2-6(G4S)-1.2 (VHH)
VH-linker-VH: QVQLVQSGAEVKKPGASVKVSCKASGYNADAYYINWVRQAPGQGLEWMGSIKPNTGATKYAQKFQGRVTITRDTSISTAYMELSRLRSDDTAVYYCASLDRDTWYPHSYAGWFDAWGQGTLVTVSSAAGGGGSGGGGSGGGGSGGGGSGGGGSGGGGSEVQLVESGGGLVQPGGSLRLSCAASGFTFSSYSMYWVRQAPGKGLEWVAEIKQDGSVQYYVSDVKGRFTISRDNAKNSLYLQMNSLRAEDTAVYYCAKGEILPLYFDYWGQGTLVTVSS
notes: also called Biparatopic 3.2-6(G4S)-1.2
Regarding B2, in the test with recombinant human IL-17A [6], the Kd stood at 0.0198 nM, the koff is 3.02e-05 s⁻¹ and the on-rate constant (kon) was 1.52e+06 M⁻¹ s⁻¹. Besides, the EC50 with recombinant human IL-17A [7] is 923 pM. In the test with recombinant human IL-17A [8], the Kd was found to be 0.02 nM.

B3: Clone 1.2 (VHH)
VHH: EVQLVESGGGLVQPGGSLRLSCAASGFTFSSYSMYWVRQAPGKGLEWVAEIKQDGSVQYYVSDVKGRFTISRDNAKNSLYLQMNSLRAEDTAVYYCAKGEILPLYFDYWGQGTLVTVSS
For B3, the “Cell assay IC50 (nM)” value with recombinant human IL-17A [9] is 0.4 nM. Besides, the “EC50 (read off the curve)” value with recombinant human IL-17A [10] is ~800 pM. Further, the dissociation constant (Kd) was 0.57 nM in the test with recombinant human IL-17A [11], 0.675 nM in the test with recombinant human IL-17A [12] and 0.555 nM in the test with recombinant human IL-17A [13]. Also, the dissociation rate constant (koff) with recombinant human IL-17A [12] amounted to 2.26e-05 s⁻¹; in the test with recombinant human IL-17A [13] it was 0.000485 s⁻¹. For the same molecule, the kon with recombinant human IL-17A [12] was 33500 M⁻¹ s⁻¹; with recombinant human IL-17A [13], 874000 M⁻¹ s⁻¹.

B4: VH 1.6.1 (clone 1.6 expressed from phagemid vector: with linker residues and His tag) (VHH)
VHH: EVQLVESGGGLVQPGGSLRLSCAASGFTFSSYSMYWVRQAPGKGLEWVAEIKQDGSEQYYVDSVKGRFTISRDNAKNSLYLQMNSLRAEDTAVYYCAKGEILPLYFDYWGQGTLVTVSS
notes: Human single VH domain
In the case of B4, the “Cell assay IC50 (nM)” value with recombinant human IL-17A [9] is 1.3 nM. In addition, in the test with recombinant human IL-17A [14], the IC50 came to 5 nM. Further, the results for the dissociation constant (Kd) with recombinant human IL-17A [15] and with recombinant human IL-17A [13] were 0.63 nM and 0.627 nM, respectively. Moreover, the binding result with IL17E, with IL-17C and in the test with IL-17F was “no binding” throughout. In the test with recombinant human IL-17A [13], the koff turned out to be 0.000482 s⁻¹. For the same molecule, the kon with recombinant human IL-17A [13] was 770000 M⁻¹ s⁻¹. In addition, the “fold improved affinity over clone 1.1” value in the test with recombinant human IL-17A [16] is ≤ 10 fold.

B5: 3.2-2(G4S)-1.2 (VHH)
VH-linker-VH: QVQLVQSGAEVKKPGASVKVSCKASGYNADAYYINWVRQAPGQGLEWMGSIKPNTGATKYAQKFQGRVTITRDTSISTAYMELSRLRSDDTAVYYCASLDRDTWYPHSYAGWFDAWGQGTLVTVSSAAGGGGSGGGGSEVQLVESGGGLVQPGGSLRLSCAASGFTFSSYSMYWVRQAPGKGLEWVAEIKQDGSVQYYVSDVKGRFTISRDNAKNSLYLQMNSLRAEDTAVYYCAKGEILPLYFDYWGQGTLVTVSS
notes: also called Biparatopic: 3.2-2(G4S)-1.2
Consider B5, for which the Kd with recombinant human IL-17A [17] came to 0.045 nM. The half-maximal effective concentration (EC50) with recombinant human IL-17A [7] came out at 1070 pM. In the test with recombinant human IL-17A [18], the equilibrium dissociation constant (Kd) came to 0.0429 nM, the koff was 4.75e-05 s⁻¹ and the kon came to 1.1e+06 M⁻¹ s⁻¹.
